Test results published in patent US6596526.
Residue numbers refer to the chain shown, from its start.

B1: Furin deletion mutant 578-711 (protein)
chain: QKVFTNTWAVRIPGGPAVANSVARKHGFLNLGQIFGDYYHFWHRGVTKRSLSPHRPRHSRLQREPQVQWLEQQVAKRRTKRDVYQEPTDPKFPQQWYLSGVTQRDLNVKAAWAQGYTGHGIVVSILDDGIEKNHPDLAGNYDPGASFDVNDQDPDPQPRYTQMNDNRHGTRCAGEVAAVANNGVCGVGVAYNARIGGVRMLDGEVTDAVEARSLGLNPNHIHIYSASWGPEDDGKTVDGPARLAEEAFFRGVSQGRGGLGSIFVWASGNGGREHDSCNCDGYTNSIYTLSISSATQFGNVPWYSEACSSTLATTYSSGNQNEKQIVTTDLRQKCTESHTGTSASAPLAAGIIALTLEANKNLTWRDMQHLVVQTSKPAHLNANDWATNGVGRKVSHSYGYGLLDAGAMVALAQNWTTVAPQRKCIIDILTEPKDIGKRLEVRKTVTACLGEPNHITRLEHAQARLTLSYNRRGDLAIHLVSPMGTRSTLLAARPHDYSADGFNDWAFMTTHSWDEDPSGEWVLEIENTSEANNYGTLTKFTLVLYGTAPEGHLPEVVAGLSCAFIVLVFVTVFLVLQLRSGFSFRGVKVYTMDRGLISYKGLPPEAWQEECPSDSEEDEGRGERTAFIKDQSAL
B2: Furin deletion mutant Helix 10 (protein)
chain: QKVFTNTWAVRIPGGPAVANSVARKHGFLNLGQIFGDYYHFWHRGVTKRSLSPHRPRHSRLQREPQVQWLEQQVAKRRTKRDVYQEPTDPKFPQQWYLSGVTQRDLNVKAAWAQGYTGHGIVVSILDDGIEKNHPDLAGNYDPGASFDVNDQDPDPQPRYTQMNDNRHGTRCAGEVAAVANNGVCGVGVAYNARIGGVRMLDGEVTDAVEARSLGLNPNHIHIYSASWGPEDDGKTVDGPARLAEEAFFRGVSQGRGGLGSIFVWASGNGGREHDSCNCDGYTNSIYTLSISSATQFGNVPWYSEACSSTLATTYSSGNQNEKQIVTTDLRQKCTESHTGTSASAPLAAGIIALTLEANKNLTWRDMQHLVVQTSKPAHLNANDWATNGVGRKVSHSYGYGLLDAGAMVALAQNWTTVAPQRKCIIDILTEPKDIGKRLEVRKTVTACLGEPNHITRLEHAQARLTLSYNRRGDLAIHLVSPMGTRSTLLAARPHDYSADGFNDWAFMTTHSWDEDPSGEWVLEIENTSEANNYGTLTKFTLVLYGTAPEGAEMWHQAMEVHLPEVVAGLSCAFIVLVFVTVFLVLQLRSGFSFRGVKVYTMDRGLISYKGLPPEAWQEECPSDSEEDEGRGERTAFIKDQSAL
B3: Furin deletion mutant Loop 10 (protein)
chain: B2 chain with A552G, E553S, M554P, W555N, H556S, A558P, M559Y, E560D, V561G

Molecular target: recombinant von Willebrand Factor precursor, P04275

| Protein | processing of rvWF precursor (Western blot) |
| --- | --- |
| B1 | the R683A, Helix 10, Loop 10 and 578-711 furin constructs evidence proteolytic activity |
| B2 | the R683A, Helix 10, Loop 10 and 578-711 furin constructs evidence proteolytic activity |
| B3 | the R683A, Helix 10, Loop 10 and 578-711 furin constructs evidence proteolytic activity |
